Source: patent US20180360972A1 (REGENTS OF THE UNIVERSITY OF MINNESOTA, published 2018)
Square brackets hold non-standard residues; d marks the D form. d2Nal = N[C@H](Cc1ccc2ccccc2c1)C(=O)O

Experiments:
[1] = biological target: T1, mMC4R-HaloTag fusion protein (mouse, UniProt P56450 1-332, HaloTag NanoBRET 618 ligand bound to the HaloTag); test: NanoBRET in transiently transfected cells; basal signal with assay buffer set as 100%
T1 construct: whole, on cells; not shown: HaloTag on the C-terminus

[2] = biological target: hMC4R PRESTO-Tango plasmid construct, transiently expressed in HTLA cells (human, UniProt P32245 1-332); test: cell-based or functional assay
[3] = biological target: human melanocortin-4 receptor (hMC4R), stably expressed in HEK293 cells (human, UniProt P32245 1-332); test: cell-based or functional assay
Chain of human melanocortin-4 receptor (hMC4R), stably expressed in HEK293 cells (P32245 whole entry): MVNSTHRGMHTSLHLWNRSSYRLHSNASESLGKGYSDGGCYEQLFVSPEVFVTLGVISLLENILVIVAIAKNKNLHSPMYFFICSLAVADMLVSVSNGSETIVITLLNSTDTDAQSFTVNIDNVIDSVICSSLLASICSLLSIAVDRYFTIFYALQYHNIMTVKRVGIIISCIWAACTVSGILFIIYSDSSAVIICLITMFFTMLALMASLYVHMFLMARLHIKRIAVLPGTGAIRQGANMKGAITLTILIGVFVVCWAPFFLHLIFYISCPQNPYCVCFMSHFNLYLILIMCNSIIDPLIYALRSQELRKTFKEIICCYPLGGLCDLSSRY

Chain of hMC4R PRESTO-Tango plasmid construct, transiently expressed in HTLA cells (P32245 whole entry): as above

B1: mMC4R-NanoLuc fusion protein (receptor, mouse, UniProt P56450 1-332, looked up)
chain: MNSTHHHGMYTSLHLWNRSSYGLHGNASESLGKGHPDGGCYEQLFVSPEVFVTLGVISLLENILVIVAIAKNKNLHSPMYFFICSLAVADMLVSVSNGSETIVITLLNSTDTDAQSFTVNIDNVIDSVICSSLLASICSLLSIAVDRYFTIFYALQYHNIMTVRRVGIIISCIWAACTVSGVLFIIYSDSSAVIICLISMFFTMLVLMASLYVHMFLMARLHIKRIAVLPGTGTIRQGTNMKGAITLTILIGVFVVCWAPFFLHLLFYISCPQNPYCVCFMSHFNLYLILIMCNAVIDPLIYALRSQELRKTFKEIICFYPLGGICELSSRY
notes: whole, on cells; not shown: NanoLuc on the C-terminus
B1: binds [1].

B2: CJL-1-80, Ac-His-DNal(2')-Arg-Trp-NH2 (peptide)
peptide: Ac-H[d2Nal]RW-NH2
For B2, the “β-arrestin recruitment, response at 10 µM relative to the maximal efficacy of NDP-MSH” value [2] was 30%.

B3: equal mixture of tetrapeptides CJL-1-14+CJL-1-80 (other)
peptide 1: Ac-H[dF]RW-NH2
peptide 2: Ac-H[d2Nal]RW-NH2
modifications: also: 1:1 mixture of two separate peptides
For B3, the “cAMP signaling (AlphaScreen), EC50” value [3] was 1.9 nM.
